Target: T1, T7-DHX34 (wild-type) (human, UniProt Q14147 1-1143)
T1 construct: Human DHX34, wild type; also called T7-tagged DHX34; shRNA-resistant (R) wild-type T7-DHX34; source: HEK293T, transiently transfected, in lysate; also purified on T7 agarose beads
T1 sequence (looked up): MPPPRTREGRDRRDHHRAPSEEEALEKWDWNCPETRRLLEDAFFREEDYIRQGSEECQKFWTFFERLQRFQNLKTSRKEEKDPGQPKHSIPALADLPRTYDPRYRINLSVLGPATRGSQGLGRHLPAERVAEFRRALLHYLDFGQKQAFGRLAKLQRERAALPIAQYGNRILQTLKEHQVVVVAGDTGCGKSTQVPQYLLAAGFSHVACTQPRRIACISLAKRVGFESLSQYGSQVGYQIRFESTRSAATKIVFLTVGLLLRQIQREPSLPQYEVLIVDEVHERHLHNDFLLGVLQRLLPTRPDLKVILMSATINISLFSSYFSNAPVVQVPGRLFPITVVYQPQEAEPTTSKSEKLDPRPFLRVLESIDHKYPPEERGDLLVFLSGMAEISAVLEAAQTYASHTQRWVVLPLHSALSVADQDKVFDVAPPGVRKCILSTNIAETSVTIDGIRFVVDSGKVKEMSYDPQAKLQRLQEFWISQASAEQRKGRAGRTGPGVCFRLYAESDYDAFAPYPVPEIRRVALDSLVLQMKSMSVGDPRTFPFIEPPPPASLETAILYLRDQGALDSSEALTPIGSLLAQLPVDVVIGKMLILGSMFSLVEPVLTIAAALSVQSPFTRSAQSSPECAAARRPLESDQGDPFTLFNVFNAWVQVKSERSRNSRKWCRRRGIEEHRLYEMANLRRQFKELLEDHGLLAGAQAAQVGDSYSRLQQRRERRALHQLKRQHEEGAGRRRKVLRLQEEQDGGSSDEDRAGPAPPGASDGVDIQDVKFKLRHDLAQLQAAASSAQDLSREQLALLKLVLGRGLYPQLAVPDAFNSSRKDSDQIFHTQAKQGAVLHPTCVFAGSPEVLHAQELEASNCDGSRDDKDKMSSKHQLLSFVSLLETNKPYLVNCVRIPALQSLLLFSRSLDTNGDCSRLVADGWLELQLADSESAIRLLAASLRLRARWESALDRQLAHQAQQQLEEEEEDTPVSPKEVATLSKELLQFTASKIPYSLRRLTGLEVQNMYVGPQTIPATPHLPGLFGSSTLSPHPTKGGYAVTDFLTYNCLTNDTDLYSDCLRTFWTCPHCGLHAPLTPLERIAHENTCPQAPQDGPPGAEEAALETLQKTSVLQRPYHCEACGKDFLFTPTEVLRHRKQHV
Experiment: pull-down; purified T7-DHX34 (wild-type or deletion constructs) on T7 agarose beads incubated with recombinant UPF1, UPF2, UPF3b or purified full-length FLAG-UPF1 in buffer D for 2 hr at 4°C
Settings: both partners purified

binding result: binds
B1: FLAG-UPF1 (wild-type) (natural protein, human, UniProt Q92900-2 1-1118, looked up)
chain: MSVEAYGPSSQTLTFLDTEEAELLGADTQGSEFEFTDFTLPSQTQTPPGGPGGPGGGGAGGPGGAGAGAAAGQLDAQVGPEGILQNGAVDDSVAKTSQLLAELNFEEDEEDTYYTKDLPIHACSYCGIHDPACVVYCNTSKKWFCNGRGNTSGSHIVNHLVRAKCKEVTLHKDGPLGETVLECYNCGCRNVFLLGFIPAKADSVVVLLCRQPCASQSSLKDINWDSSQWQPLIQDRCFLSWLVKIPSEQEQLRARQITAQQINKLEELWKENPSATLEDLEKPGVDEEPQHVLLRYEDAYQYQNIFGPLVKLEADYDKKLKESQTQDNITVRWDLGLNKKRIAYFTLPKTDSDMRLMQGDEICLRYKGDLAPLWKGIGHVIKVPDNYGDEIAIELRSSVGAPVEVTHNFQVDFVWKSTSFDRMQSALKTFAVDETSVSGYIYHKLLGHEVEDVIIKCQLPKRFTAQGLPDLNHSQVYAVKTVLQRPLSLIQGPPGTGKTVTSATIVYHLARQGNGPVLVCAPSNIAVDQLTEKIHQTGLKVVRLCAKSREAIDSPVSFLALHNQIRNMDSMPELQKLQQLKDETGELSSADEKRYRALKRTAERELLMNADVICCTCVGAGDPRLAKMQFRSILIDESTQATEPECMVPVVLGAKQLILVGDHCQLGPVVMCKKAAKAGLSQSLFERLVVLGIRPIRLQVQYRMHPALSAFPSNIFYEGSLQNGVTAADRVKKGFDFQWPQPDKPMFFYVTQGQEEIASSGTSYLNRTEAANVEKITTKLLKAGAKPDQIGIITPYEGQRSYLVQYMQFSGSLHTKLYQEVEIASVDAFQGREKDFIILSCVRANEHQGIGFLNDPRRLNVALTRARYGVIIVGNPKALSKQPLWNHLLNYYKEQKVLVEGPLNNLRESLMQFSKPRKLVNTINPGARFMTTAMYDAREAIIPGSVYDRSSQGRPSSMYFQTHDQIGMISAGPSHVAAMNIPIPFNLVMPPMPPPGYFGQANGPAAGRGTPKGKTGRGGRQKNRFGLPGPSQTNLPNSQASQDVASQPFSQGALTQGYISMSQPSQMSQPGLSQPELSQDSYLGDEFKSQIDVALSQDSTYQGERAYQHGGVTGLSQY
notes: UPF1, human, full length; Plasmid named pcDNA3 x FLAG-UPF1 in the methods; also called purified full-length FLAG-UPF1; source: HEK293T, transiently transfected, in lysate
